This is an account of results in the nanobody polyreactivity screen of Harvey et al. (2022).

This series in a line: yeast display, Sf9 membrane polyspecificity reagent, FACS + sequencing; frameworks hold sequencing errors. The method in brief: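 Galactose induction of a Saccharomyces cerevisiae BJ5465 synthetic nanobody display library ran 36–48 hours. The cells were then stained for 1 hour at 4 °C with 10% biotinylated, detergent-solubilized Sf9 membrane reagent, pulled down on streptavidin microbeads and FACS-sorted into low and high (top ~1%) gates on expression and reagent-binding fluorescence. Labels for polyreactivity follow the gate of origin.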
Take “QVQLVESGGGLVQAGGSLRLSCAASGRTFQINAMGWYRQAPGKERELVAAITWSGGSTYYADSVKRRFTISPDNAKNPVYLQMNSLKPADTALYYCNTRYRAYATLNLIAGYNSWGQGTQVTVSS”: the “polyreactivity (PSR sort gate)” value was “low polyreactivity”. For the sequence “QVQLVESGGGLVQAGGSLRLSCAASGRTFQLNAMGCYRQAPGKERELVAAISTRGGSTYYADSVKGRFTISRDNAKNTVYLQMNSLKPEDTAVYYCAKDPSFTRGYKDGGGYDYWGQGTQVTVSS”, the “polyreactivity (PSR sort gate)” value was “high polyreactivity”. Turning to “QVQLVESGGGLVQAGGSLRLSCAASGRTFQLNAMGWYRQAPGKEREFVATISTGGGGTFYADSVKGRFTISRDNAKNTVYLQMNSLKPEDTAVYYCNAGGETYIFRDLRHDYWGQGTQVTVSS”, the “polyreactivity (PSR sort gate)” value is “low polyreactivity”. Turning to “QVQLVESGGGLVQAGGSLRLSCAASGRTFQLYAMGWYRQAPGKERELVAAITSGGNTYYADSVKGRFTISRDNAKNTVYLQMNSLKPVDTAVYYCFLYYSRSMGYWGQGTQVTVSS”, the “polyreactivity (PSR sort gate)” value was “high polyreactivity”. “QVQLVESGGGLVQAGGSLRLSCAASGRTFQQNAMGWYRQAPGKERELVATIRNGGNTNYADSVKGRFTISRDNAKNTVYLQLNSLKPEDTAVYYSAARVYTHGLWGYNYWGQGTQVTVSS”: the “polyreactivity (PSR sort gate)” value is “high polyreactivity”. With “QVQLVESGGGLVQAGGSLRLSCAASGRTFQSNAMGWYRQAPGNERELVAAISRRGGSTYYADSVKGRFTISRDNEKNTVYLQMNCLKPEDTAVYYCNRDAKAGDWGQGTQVTVSS”, the “polyreactivity (PSR sort gate)” value is given as “high polyreactivity”. As for “QVQLVESGGGLVQAGGSLRLSCAASGRTFQSYAMGWYRQAPGKERELVASITSGASTNYADSVKGRFTISRDNAKNTVYLQMNSLKPEDTAVYYCARRIGHGSRPYWLETWRYPYDYWGQGTQVTVSS”, the “polyreactivity (PSR sort gate)” value is on record as “low polyreactivity”. “QVQLVESGGGLVQAGGSLRLSCAASGRTFQTYAMGWYRQAPGKERELVAAISSDGSTYYADSVKGRFTISRDNAKNTVYLQMNSLKPEDTAVYYCNTDIGDKYYYHVRVDYEYWGQGTQVTLSS”: the “polyreactivity (PSR sort gate)” value is on record as “low polyreactivity”. “QVQLVESGGGLVQAGGSLRLSCAASGRTFQWNGMGWYRQAPGKERELVDTIRRGGSTNYADSVKGRFTISRDNAKNTVDLQMNSLKPEDTAVYYCAADRRYPGGWGFEYNYWGQGTQVTVSS”: the “polyreactivity (PSR sort gate)” value is given as “low polyreactivity”.

“QVQLVESGGGLVQAGGSLRLSCAASGRTFQYYAMGWNRQAPGKERELVAAISQDGGSTYYADSVKGRFTISRDNAKHSVYLQMNSLKPEDTAVYYCDAEVWRSYGYWGQGTQVTVSS”: the “polyreactivity (PSR sort gate)” value is recorded as “low polyreactivity”. As for “QVQLVESGGGLVQAGGSLRLSCAASGRTFQYYAMGWYRPAPGKERELVAALSSRGGSTYYADSVKGRFTISRDNAKNTVSLQMNSLKPEDTAVYYCAAYVLPRQRVRSDYWGQGTQVTVTS”, the entry is “high polyreactivity”. As for “QVQLVESGGGLVQAGGSLRLSCAASGRTFQYYVMGWYRQAPGKERELVAAITSAGSTNYADSVKGRFTISRDNAKNTVYLQMNSLKPEDTAVYYCNADLWVNLHNDDDYWGQGTQVTVSS”, the entry is “low polyreactivity”. As to “QVQLVESGGGLVQAGGSLRLSCAASGRTFRANAMGWSRQAPGKERELVAAITWDGGSTYYADSVKGRFTISRDNAKNTVYLQMNSLKPEDTAVYYCNTYPYLWGQGTQVTVSS”, the “polyreactivity (PSR sort gate)” value is reported as “low polyreactivity”. On to “QVQLVESGGGLVQAGGSLRLSCAASGRTFRANDMGWYRQAPGKERELVAAISQSGGSTYYADSVKGRFTISRDNAKNTVYFQMNSLKPEDTAVYDCNALGRISNHTLYDYWGQGTQVTVSS”, for which the “polyreactivity (PSR sort gate)” value is listed as “low polyreactivity”. Turning to “QVQLVESGGGLVQAGGSLRLSCAASGRTFRANVMGWYRQAPGKERELVAAISKSGGRTYYADSVKGRFTISRDNAKNTVYLQMNSLKPEDTAVYYCAADIPSYRGYGYDYWGQGTQVTVSS”, the “polyreactivity (PSR sort gate)” value is recorded as “high polyreactivity”. Regarding “QVQLVESGGGLVQAGGSLRLSCAASGRTFRAYALGWYRQAPGKERELVARISWSGGNTYNADSVKGRFTISRDHAKNTVYLQMNSLKPEDTAVYYCAKTYYPYPAQIYTGYSWGQGTQVTVSS”, the “polyreactivity (PSR sort gate)” value is recorded as “low polyreactivity”. As for “QVQLVESGGGLVQAGGSLRLSCAASGRTFRAYAMGGYRQAPGKERELVAAITSGGSTYYADSVKGRFTISRDNAKNTVYLQMNSLKPEDTAVYYCNRRGWSRTHQYDYWGQGTQVTESS”, the entry is “high polyreactivity”; as for “QVQLVESGGGLVQAGGSLRLSCAASGRTFRAYAMGWYRQAPGKEMELVAGITSGGSTNYADSVKGRFTISRDNAKNTVYLQMNSLKPEDTAVYYCAARRGTYRYRYDYWGQGTQVTVSS”, “high polyreactivity”.

As for “QVQLVESGGGLVQAGGSLRLSCAASGRTFRAYAMGWYRQAPGKERELVAAIRSGTSTNYADSVKGRFTISRDNAKNTVYLQMNSLKPEDTAVYYCAAEWRKTYRYFTFGYWGQGTQVTVSS”, the “polyreactivity (PSR sort gate)” value is listed as “high polyreactivity”.

With “QVQLVESGGGLVQAGGSLRLSCAASGRTFRAYAMGWYRQAPGKERELVAAISRSGGRTYYADSVKGRFIISRDNAKITVYLQMNSLKPEDTAVYYCAAGSNIWGQGTQVTVSS”, the “polyreactivity (PSR sort gate)” value is “high polyreactivity”. Consider “QVQLVESGGGLVQAGGSLRLSCAASGRTFRDNAMGWYRQAPGKERELVAAISRRGGSTYYADSVKGRFTISRDNAKNTVYLQMNSLKPEDTAVYYCAADRPDGWVDYWGQGTQVTVSS”, for which the “polyreactivity (PSR sort gate)” value was “low polyreactivity”. Next, “QVQLVESGGGLVQAGGSLRLSCAASGRTFRDNTMGWYRQAPGKERELVAGISSSTGSTYYADSVKGRFTISRDNAKNTVYLQMNSLKPEDTAVYYCAAEYADYWTYNMGYWGQGTQVTVSS”: “low polyreactivity”; “QVQLVESGGGLVQAGGSLRLSCAASGRTFRFYAMGWYRQAPGKERELVAAITSGGSTTYADSVKGRFTISRDNAKNTVYLQMNSLKPEDTAVYYCNADRARAYDYWGQGTQVTVSS”: “high polyreactivity”. For “QVQLVESGGGLVQAGGSLRLSCAASGRTFRGYAMGWYRQAPGKERELVAAISASGGSTYYADSVKGRFTISRDNAKNTVYLQMNSLKPEDTAVYYCAARFWFTKGYDYWGQGTQVTVSS”, the “polyreactivity (PSR sort gate)” value is recorded as “high polyreactivity”. As to “QVQLVESGGGLVQAGGSLRLSCAASGRTFRGYAMGWYRQAPGKERELVAAISSGGSTYYADSVKGRFTISRDNAKNTVYLQMNSLKPEDTAVYYCAVAYYPHGREGAHFQYGYDYWGQGTQVTVSS”, the “polyreactivity (PSR sort gate)” value was “low polyreactivity”. As for “QVQLVESGGGLVQAGGSLRLSCAASGRTFRHDGMGWYRQAPGKERELVAAISRSGGRTYYADSVKGRFTISRDNAKNTVYLQMNSLKPEDTAVYYCNAPYDVTTYAFDYWGQGTQVTVSS”, the “polyreactivity (PSR sort gate)” value is recorded as “high polyreactivity”. For the sequence “QVQLVESGGGLVQAGGSLRLSCAASGRTFRIYAMGWYRQAPGKERELVAAITWGGGSTYYADSVKGRFTISRDNAKNTVYLQMNSLKPEDTAVYYCARVGWSWPRREKYNYWGQGTQVTVSS”, the “polyreactivity (PSR sort gate)” value is recorded as “high polyreactivity”. As for “QVQLVESGGGLVQAGGSLRLSCAASGRTFRIYAMGWYRQAPGKERELVATISGRGGNTYYADSVKGRFTISRDNAKNTVYLQMNSLKPEDTAVDYCAADDATAYRVDGFKYDYWGQGTLVTVSS”, the “polyreactivity (PSR sort gate)” value was “high polyreactivity”. Consider “QVQLVESGGGLVQAGGSLRLSCAASGRTFRIYARGWSRQAPGKERELDAAITKRGGITYYADSVKGRFTISRDNAQNTVYLQMNSLKPEDTAVYYCAKAWKSWSRISKSTFYWTSGDYWGQGTQVTVSS”, for which the “polyreactivity (PSR sort gate)” value is reported as “high polyreactivity”. Take “QVQLVESGGGLVQAGGSLRLSCAASGRTFRKFAMGWYRQAPGKERELVAASSWSGGSTYYANSVKGRFTISRDNAKNTVYLQMNSLKPDDTAVYYCAAVPVHTGSLYWGFTTGYDYWGQGTQVTVSS”: the “polyreactivity (PSR sort gate)” value is listed as “low polyreactivity”. Consider “QVQLVESGGGLVQAGGSLRLSCAASGRTFRKYAMGWYRQAPGKERELVAAISWSGGSRYYANSVKGRFTISRDNAKNTVYLQMNSLKPEETAVYYCSAVPVHTGSLYWGFTTGYDYWGQGTQVTVSS”, for which the “polyreactivity (PSR sort gate)” value is given as “low polyreactivity”. “QVQLVESGGGLVQAGGSLRLSCAASGRTFRKYAMGWYRQAPGKERELVAAISWSGGSTYYANSVKGRFTISRDNAKNTVYLQMNSLKPEDTAVYYCAAVPVHTGSLYWGFTTGYDYWGQGTQVTVSS”: the “polyreactivity (PSR sort gate)” value is listed as “low polyreactivity”. As for “QVQLVESGGGLVQAGGSLRLSCAASGRTFRLNAMGWYRQAPGKERELVARITGSSGGSTYYADSVKGRFTISRDNAKNTVYLQMNSLKPEDTAVYYCNKRVGFLYKYDYWGQGTQVTVSS”, the entry is “high polyreactivity”; as for “QVQLVESGGGLVQAGGSLRLSCAASGRTFRLYAMGWYRHAPGKERELVAAISRRGGSTYYADSVKGRFTISRDNAKNTVYLQMNSLKPEDTAVYYCAKGLGSGQEIYGYDYWGQGTQVTVSS”, “high polyreactivity”. For the sequence “QVQLVESGGGLVQAGGSLRLSCAASGRTFRLYAMGWYRQAPGKVRELGAAITRGGRTNYADSVKGRFTISRDNAKNTVYLQMNSLKPEDTALYYCAARYVERHTDYYYWGQGTQVTVSS”, the “polyreactivity (PSR sort gate)” value was “low polyreactivity”. “QVQLVESGGGLVQAGGSLRLSCAASGRTFRNNAMGWYRQAPGKEREFVAVISNTGGSTYYADSVKGRFTISRDNAKNTVYLQMYSLKPEDTAVYYCAVRPRYSQYYYWGQGTQVTVSS”: the “polyreactivity (PSR sort gate)” value is “high polyreactivity”. “QVQLVESGGGLVQAGGSLRLSCAASGRTFRNYAMGWYRPAPGKERELVAAITWSGGSTYYADSVKGRFTISRDNAKNTVYLQMNSLKPEDTAVYYCNVRSYTRTYNYWGQGTQVTVSS”: the “polyreactivity (PSR sort gate)” value is “high polyreactivity”. Next, “QVQLVESGGGLVQAGGSLRLSCAASGRTFRPNVMGWYRQAPGKERELVAAISNGGRTYYADSVKGRFTISRDNAKNTVFLQMNCLKAEYTAVYYCNKVRSPWYDYWVQGTQVTVSS”: “high polyreactivity”. With “QVQLVESGGGLVQAGGSLRLSCAASGRTFRPYAMGWYRPAPGKERELVAAISYRGGITNYADSVKGRFTISRDNAKNTVYLKMNSLKPEDTAVYYCNRYAIWVSRYSDLDYWGQGTEVTVSS”, the “polyreactivity (PSR sort gate)” value is on record as “low polyreactivity”. As for “QVQLVESGGGLVQAGGSLRLSCAASGRTFRPYAMGWYRQAPGKERELVAAISSGGSTYYADSVKGRFTISRDNAKNTVYLQMNSLKPEDTAVYYCNAVGLWARDYGYWGQGTQVTVSS”, the “polyreactivity (PSR sort gate)” value is on record as “high polyreactivity”.

For “QVQLVESGGGLVQAGGSLRLSCAASGRTFRRNAMGWYRQAPGKERELVAAISGGGSTNYADSVKGRFTISRDNAKNTVYLQMNSLKPEDTAVYYCNKRGTIWSGYWGQGTQVTVSS”, the “polyreactivity (PSR sort gate)” value is “high polyreactivity”.
